Source: US12398178 (dated 2025)
One block for each binder: values may come before it.

Assays:
[1] = target: i,i+7 non-binder Linker 7; test: fluorescence polarization; xStAx41 derivative
i,i+7 binder Linker 5 = test: fluorescence polarization; xStAx41 derivative
i,i+7 binder Linker 7 = test: fluorescence polarization; xStAx41 derivative
[2] = target: i,i+4 non-binder Linker 1; test: fluorescence polarization; xStAx41 derivative
[3] = target: i,i+4 non-binder Linker 3; test: fluorescence polarization; xStAx41 derivative
[4] = target: i,i+7 non-binder Linker 4; test: fluorescence polarization; xStAx41 derivative
i,i+7 binder Linker 3 = test: fluorescence polarization; xStAx41 derivative
[5] = target: i,i+4 non-binder Linker 2; test: fluorescence polarization; xStAx41 derivative
i,i+4 binder Linker 1 = test: fluorescence polarization; xStAx41 derivative
i,i+7 binder Linker 9 = test: fluorescence polarization; xStAx41 derivative
i,i+4 binder Linker 4 = test: fluorescence polarization; xStAx41 derivative
i,i+4 binder Linker 3 = test: fluorescence polarization; xStAx41 derivative
i,i+7 binder Linker 1 = test: fluorescence polarization; xStAx41 derivative
i,i+7 binder Linker 6 = test: fluorescence polarization; xStAx41 derivative
i,i+4 binder Linker 2 = test: fluorescence polarization; xStAx41 derivative
[6] = target: i,i+4 non-binder Linker 4; test: fluorescence polarization; xStAx41 derivative
[7] = target: i,i+7 non-binder Linker 3; test: fluorescence polarization; xStAx41 derivative
[8] = target: i,i+7 non-binder Linker 5; test: fluorescence polarization; xStAx41 derivative
i,i+4 binder Linker 7 = test: fluorescence polarization; xStAx41 derivative
[9] = target: i,i+4 non-binder Linker 5; test: fluorescence polarization; xStAx41 derivative
[10] = target: i,i+7 non-binder Linker 9; test: fluorescence polarization; xStAx41 derivative
i,i+4 binder Linker 5 = test: fluorescence polarization; xStAx41 derivative
i,i+4 binder Linker 6 = test: fluorescence polarization; xStAx41 derivative
[11] = target: i,i+7 non-binder Linker 1; test: fluorescence polarization; xStAx41 derivative
i,i+4 binder Linker 8 = test: fluorescence polarization; xStAx41 derivative
[12] = target: i,i+7 non-binder Linker 6; test: fluorescence polarization; xStAx41 derivative
[13] = target: i,i+4 non-binder Linker 6; test: fluorescence polarization; xStAx41 derivative
i,i+7 binder Linker 2 = test: fluorescence polarization; xStAx41 derivative
i,i+7 binder Linker 8 = test: fluorescence polarization; xStAx41 derivative
i,i+4 binder Linker 9 = test: fluorescence polarization; xStAx41 derivative
i,i+7 binder Linker 4 = test: fluorescence polarization; xStAx41 derivative
[14] = target: i,i+4 non-binder Linker 8; test: fluorescence polarization; xStAx41 derivative
[15] = target: i,i+4 non-binder Linker 7; test: fluorescence polarization; xStAx41 derivative
[16] = target: i,i+4 non-binder Linker 9; test: fluorescence polarization; xStAx41 derivative
[17] = target: i,i+7 non-binder Linker 2; test: fluorescence polarization; xStAx41 derivative
[18] = target: i,i+7 non-binder Linker 8; test: fluorescence polarization; xStAx41 derivative
Compound 2 = test: SPR (Biacore)

Kd [1]: > 50 µM
Kd (i,i+7 binder Linker 5): 14.6 µM
Kd (i,i+7 binder Linker 7): 0.6 µM
Kd [2]: > 50 µM
Kd [3]: > 50 µM
Kd [4]: > 50 µM
Kd (i,i+7 binder Linker 3): 25.4 µM
Kd [5]: > 50 µM
Kd (i,i+4 binder Linker 1): > 50 µM
Kd (i,i+7 binder Linker 9): 10.5 µM
Kd (i,i+4 binder Linker 4): 10.1 µM
Kd (i,i+4 binder Linker 3): 7.1 µM
Kd (i,i+7 binder Linker 1): 2.9 µM
Kd (i,i+7 binder Linker 6): 5.3 µM
Kd (i,i+4 binder Linker 2): 3.1 µM
Kd [6]: > 50 µM
Kd [7]: > 50 µM
Kd [8]: > 50 µM
Kd (i,i+4 binder Linker 7): 7.8 µM
Kd [9]: > 50 µM
Kd [10]: > 50 µM
Kd (i,i+4 binder Linker 5): 8.6 µM
Kd (i,i+4 binder Linker 6): 5.6 µM
Kd [11]: > 50 µM
Kd (i,i+4 binder Linker 8): 28.7 µM
Kd [12]: > 50 µM
Kd [13]: > 50 µM
Kd (i,i+7 binder Linker 2): > 50 µM
Kd (i,i+7 binder Linker 8): 16.3 µM
Kd (i,i+4 binder Linker 9): 2.4 µM
Kd (i,i+7 binder Linker 4): 8.7 µM
Kd [14]: > 50 µM
Kd [15]: > 50 µM
Kd [16]: > 50 µM
Kd [17]: > 50 µM
Kd [18]: > 50 µM
B1: beta-catenin (other)
chain: ATQADLMELDMAMEPDRKAAVSHWQQQSYLDSGIHSGATTTAPSLSGKGNPEEEDVDTSQVLYEWEQGFSQSFTQEQVADIDGQYAMTRAQRVRAAMFPETLDEGMQIPSTQFDAAHPTNVQRLAEPSQMLKHAVVNLINYQDDAELATRAIPELTKLLNDEDQVVVNKAAVMVHQLSKKEASRHAIMRSPQMVSAIVRTMQNTNDVETARCTAGTLHNLSHHREGLLAIFKSGGIPALVKMLGSPVDSVLFYAITTLHNLLLHQEGAKMAVRLAGGLQKMVALLNKTNVKFLAITTDCLQILAYGNQESKLIILASGGPQALVNIMRTYTYEKLLWTTSRVLKVLSVCSSNKPAIVEAGGMQALGLHLTDPSQRLVQNCLWTLRNLSDAATKQEGMEGLLGTLVQLLGSDDINVVTCAAGILSNLTCNNYKNKMMVCQVGGIEALVRTVLRAGDREDITEPAICALRHLTSRHQEAEMAQNAVRLHYGLPVVVKLLHPPSHWPLIKATVGLIRNLALCPANHAPLREQGAIPRLVQLLVRAHQDTQRRTSMGGTQQQFVEGVRMEEIVEGCTGALHILARDVHNRIVIRGLNTIPLFVQLLYSPIENIQRVAAGVLCELAQDKEAAEAIEAEGATAPLTELLHSRNEGVATYAAAVLFRMSEDKPQDYKKRLSVELTSSLFRTEPMAWNETADLGLDIGAQGEPLGYRQDDPSYRSFHSGGYGQDALGMDPMMEHEMGGHHPGADYPVDGLPDLGHAQDLMDGLPPGDSNQLAWFDTDL

Kd (Compound 2): 0.45 µM
B2: beta-Catenin (other)
chain: HAVVNLINYQDDAELATRAIPELTKLLNDEDQVVVNKAAVMVHQLSKKEASRHAIMRSPQMVSAIVRTMQNTNDVETARCTAGTLHNLSHHREGLLAIFKSGGIPALVKMLGSPVDSVLFYAITTLHNLLLHQEGAKMAVRLAGGLQKMVALLNKTNVKFLAITTDCLQILAYGNQESKLIILASGGPQALVNIMRTYTYEKLLWTTSRVLKVLSVCSSNKPAIVEAGGMQALGLHLTDPSQRLVQNCLWTLRNLSDAATKQEGMEGLLGTLVQLLGSDDINVVTCAAGILSNLTCNNYKNKMMVCQVGGIEALVRTVLRAGDREDITEPAICALRHLTSRHQEAEMAQNAVRLHYGLPVVVKLLHPPSHWPLIKATVGLIRNLALCPANHAPLREQGAIPRLVQLLVRAHQDTQRRTSMGGTQQQFVEGVRMEEIVEGCTGALHILARDVHNRIVIRGLNTIPLFVQLLYSPIENIQRVAAGVLCELAQDKEAAEAIEAEGATAPLTELLHSRNEGVATYAAAVLFRMSED
